This is an account of results in the supplement of paper PMC7877785.

± gives the uncertainty stated by the source.

The data set in a line: self-splicing fitness, log relative to wild type (ln ratio); higher = more splicing; Tetrahymena group I intron in knt gene, E. coli kanamycin selection, DiMSum; sequences stand for … in CUCUCU…GGAGGGAAAAGUUAUCAGGCAUGCACCUGGUAGCUAGUCUUUAAACCAAUAGAUUGCAUCGGUUUAAAAGGCAAGACCGUCAAAUUGCGGGAAAGGGGUCAACAGCCGUUCAGUACCAAGUCUCAGGGGAAACUUUGAGAUGGCCUUGCAAAGGGUAUGGUAAUAAGCUGACGGACAUGGUCCUAACCACGCAGCCAAGUCCUAAGUCAACAGAUCUUCUGUUGAUAUGGAUGCAGUUCACAGACUAAAUGUCGGUCGGGGAAGAUGUAUUCUUCUCAUAAGAUAUAGUCGGACCUCUCCUUAAUGGGAGCUAGCGGAUGAAGUGAUGCAACACUGGAGCCGCUGGGAACUAAUUUGUAUGCGAAAGUAUAUUGAUUAGUUUUGGAGUACUCGUGGUCG
Summed up:
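The eight P1ex-region nucleotides of an intron in the knt kanamycin-resistance gene on pET-22b(+) were all randomised and the library put into E. coli BL21(DE3). Six replicate transformations were grown overnight at 37°C or 30°C on LB agar with or without 25 μg/mL kanamycin, together with 100 μg/mL carbenicillin, 50 μM IPTG and 0.2% rhamnose. Colonies were pooled and amplicon-sequenced on an Illumina HiSeq 2500. Fitness from DiMSum is the error-weighted combination of wild-type-normalised replicate fold changes, kanamycin over none.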

On to AGUUAGCAAUAUUACGGUUC, for which the “self-splicing fitness (ln)” value runs as follows: (30 °C) -3.52 ± 0.28; (37 °C) -2.11 ± 0.27. Taken in the same sequence, the figures for AGUUAGCAAUAUUACGUACG were -0.205 ± 0.18 and 0.0821 ± 0.19. Taken in the same sequence, the figures for AGUUAGCAAUAUUACGUAGC were -3.86 ± 0.26 and -0.803 ± 0.14. Turning to AGUUAGCAAUAUUACGUGCG, the “self-splicing fitness (ln)” value (30 °C) is -0.586 ± 0.082 and the “self-splicing fitness (ln)” value (37 °C) is -0.00484 ± 0.093. Taken in the same sequence, the figures for AGUUAGCAAUAUUACGUGGG were -4 ± 0.29 and -3.07 ± 0.31. On the same counts, the results for AGUUAGCAAUAUUACGUGUA are -2.26 ± 0.23 and -0.97 ± 0.15.

Consider AGUUAGCAAUAUUACGUUAU, for which the “self-splicing fitness (ln)” value is -3.25 ± 0.17 (30 °C) and -2.08 ± 0.17 (37 °C).

As to AUAAAGCAAUAUUACGAACG, the “self-splicing fitness (ln)” value is -0.309 ± 0.082 (30 °C) and -0.0989 ± 0.11 (37 °C). Take AUAAAGCAAUAUUACGAAGA: the “self-splicing fitness (ln)” value runs as follows: (30 °C) -2.47 ± 0.15; (37 °C) -1.17 ± 0.18. Taken in the same sequence, the figures for AUAAAGCAAUAUUACGAAGG were -2.1 ± 0.081 and -1.41 ± 0.12. On the same counts, the results for AUAAAGCAAUAUUACGACGG are -1.66 ± 0.096 and -0.375 ± 0.12. Taken in the same sequence, the figures for AUAAAGCAAUAUUACGAGCC were -0.929 ± 0.14 and -1.35 ± 0.19. For the sequence AUAAAGCAAUAUUACGAUCC, the “self-splicing fitness (ln)” value was -1.21 ± 0.2 (30 °C) and -0.716 ± 0.22 (37 °C).

As to AUAAAGCAAUAUUACGAUGU, the “self-splicing fitness (ln)” value (30 °C) was -0.252 ± 0.072 and the “self-splicing fitness (ln)” value (37 °C) turned out to be 0.28 ± 0.099.

For AUAAAGCAAUAUUACGCAAC, the “self-splicing fitness (ln)” value reads like this: (30 °C) -1.38 ± 0.13; (37 °C) -1.34 ± 0.21. In the case of AUAAAGCAAUAUUACGCACA, the “self-splicing fitness (ln)” value came to 0.246 ± 0.1 (30 °C) and 0.202 ± 0.15 (37 °C). Taken in the same sequence, the figures for AUAAAGCAAUAUUACGCACU were 0.366 ± 0.11 and 0.662 ± 0.11. On the same counts, the results for AUAAAGCAAUAUUACGCGAA are -1.19 ± 0.088 and -0.188 ± 0.1. Taken in the same sequence, the figures for AUAAAGCAAUAUUACGCGGC were -2.79 ± 0.21 and -0.109 ± 0.19. As to AUAAAGCAAUAUUACGCUGA, the “self-splicing fitness (ln)” value (30 °C) is -1.27 ± 0.082 and the “self-splicing fitness (ln)” value (37 °C) is -0.907 ± 0.15. On the same counts, the results for AUAAAGCAAUAUUACGGAAA are -1.11 ± 0.11 and -1.12 ± 0.18.

Consider AUAAAGCAAUAUUACGGACA, for which the “self-splicing fitness (ln)” value is, setting by setting: (30 °C) -0.148 ± 0.094; (37 °C) 0.131 ± 0.13. Taken in the same sequence, the figures for AUAAAGCAAUAUUACGGACG were -0.505 ± 0.11 and -0.793 ± 0.13. On the same counts, the results for AUAAAGCAAUAUUACGGGAG are -1.52 ± 0.11 and -1.23 ± 0.14.

Consider AUAAAGCAAUAUUACGGGCG, for which the “self-splicing fitness (ln)” value is -0.028 ± 0.097 (30 °C) and -0.567 ± 0.1 (37 °C). Taken in the same sequence, the figures for AUAAAGCAAUAUUACGGUGC were -1.95 ± 0.1 and -0.743 ± 0.13. On to AUAAAGCAAUAUUACGUAAA, for which the “self-splicing fitness (ln)” value (30 °C) was -2.39 ± 0.11 and the “self-splicing fitness (ln)” value (37 °C) is -1.03 ± 0.12. Taken in the same sequence, the figures for AUAAAGCAAUAUUACGUACG were -0.889 ± 0.095 and -0.0766 ± 0.13. Turning to AUAAAGCAAUAUUACGUAGC, the “self-splicing fitness (ln)” value is, setting by setting: (30 °C) -3.74 ± 0.27; (37 °C) -1.26 ± 0.2. As to AUAAAGCAAUAUUACGUCUA, the “self-splicing fitness (ln)” value (30 °C) came out at 0.308 ± 0.078 and the “self-splicing fitness (ln)” value (37 °C) came to 0.497 ± 0.099. As to AUAAAGCAAUAUUACGUUAG, the “self-splicing fitness (ln)” value (30 °C) is -1.33 ± 0.067 and the “self-splicing fitness (ln)” value (37 °C) was -0.504 ± 0.088. Regarding AUAAAGCAAUAUUACGUUCU, the “self-splicing fitness (ln)” value is, setting by setting: (30 °C) 0.0113 ± 0.08; (37 °C) 0.404 ± 0.12. Taken in the same sequence, the figures for AUAAAGCAAUAUUACGUUUC were -3.83 ± 0.23 and -2.64 ± 0.33. Taken in the same sequence, the figures for AUACAGCAAUAUUACGAAGG were -3.3 ± 0.24 and -2.87 ± 0.28. Taken in the same sequence, the figures for AUACAGCAAUAUUACGACCG were -1.22 ± 0.096 and -0.49 ± 0.1.

On to AUACAGCAAUAUUACGACUC, for which the “self-splicing fitness (ln)” value is -0.976 ± 0.086 (30 °C) and 0.311 ± 0.11 (37 °C).

Regarding AUACAGCAAUAUUACGAGCA, the “self-splicing fitness (ln)” value runs as follows: (30 °C) -2.04 ± 0.24; (37 °C) -1.91 ± 0.23. On the same counts, the results for AUACAGCAAUAUUACGAUGU are -0.929 ± 0.076 and -0.0117 ± 0.089.

With AUACAGCAAUAUUACGCAUA, the “self-splicing fitness (ln)” value was -1.54 ± 0.12 (30 °C) and -0.743 ± 0.13 (37 °C). On the same counts, the results for AUACAGCAAUAUUACGCCAC are -3.08 ± 0.24 and -3.12 ± 0.32. On the same counts, the results for AUACAGCAAUAUUACGCCUU are -0.541 ± 0.06 and -0.208 ± 0.073. Consider AUACAGCAAUAUUACGCUUU, for which the “self-splicing fitness (ln)” value by setting is: (30 °C) -3.04 ± 0.18; (37 °C) -1.64 ± 0.15. On the same counts, the results for AUACAGCAAUAUUACGGAAC are -3.46 ± 0.43 and -1.67 ± 0.35. Regarding AUACAGCAAUAUUACGGACG, the “self-splicing fitness (ln)” value reads like this: (30 °C) -1.61 ± 0.091; (37 °C) -1.04 ± 0.098. In the case of AUACAGCAAUAUUACGGAGC, the “self-splicing fitness (ln)” value is -3.27 ± 0.28 (30 °C) and -2.78 ± 0.26 (37 °C). In the case of AUACAGCAAUAUUACGGCCU, the “self-splicing fitness (ln)” value runs as follows: (30 °C) -0.505 ± 0.093; (37 °C) 0.263 ± 0.1. On the same counts, the results for AUACAGCAAUAUUACGGCUG are -1.95 ± 0.13 and -2.6 ± 0.23. On the same counts, the results for AUACAGCAAUAUUACGGUAC are -4.13 ± 0.3 and -2.2 ± 0.18. With AUACAGCAAUAUUACGGUAG, the “self-splicing fitness (ln)” value reads like this: (30 °C) -1.54 ± 0.075; (37 °C) -0.891 ± 0.087.

As to AUACAGCAAUAUUACGGUAU, the “self-splicing fitness (ln)” value by setting is: (30 °C) -3.46 ± 0.18; (37 °C) -2.99 ± 0.2.

For AUACAGCAAUAUUACGGUUG, the “self-splicing fitness (ln)” value by setting is: (30 °C) -2.35 ± 0.097; (37 °C) -0.364 ± 0.093. Turning to AUACAGCAAUAUUACGUCAU, the “self-splicing fitness (ln)” value reads like this: (30 °C) -1.53 ± 0.084; (37 °C) -0.888 ± 0.088. With AUACAGCAAUAUUACGUCGG, the “self-splicing fitness (ln)” value (30 °C) is -2.35 ± 0.13 and the “self-splicing fitness (ln)” value (37 °C) is -2.13 ± 0.17. On to AUACAGCAAUAUUACGUCUG, for which the “self-splicing fitness (ln)” value is, setting by setting: (30 °C) -2.93 ± 0.083; (37 °C) -1.4 ± 0.08. In the case of AUACAGCAAUAUUACGUGGA, the “self-splicing fitness (ln)” value by setting is: (30 °C) -3.06 ± 0.12; (37 °C) -2.47 ± 0.12. In the case of AUACAGCAAUAUUACGUGGG, the “self-splicing fitness (ln)” value is, setting by setting: (30 °C) -3.45 ± 0.15; (37 °C) -1.53 ± 0.12. For the sequence AUACAGCAAUAUUACGUUAG, the “self-splicing fitness (ln)” value runs as follows: (30 °C) -3.13 ± 0.15; (37 °C) -2.12 ± 0.17. Turning to AUACAGCAAUAUUACGUUAU, the “self-splicing fitness (ln)” value was -3.44 ± 0.13 (30 °C) and -2.04 ± 0.1 (37 °C).

On to AUAGAGCAAUAUUACGAAAG, for which the “self-splicing fitness (ln)” value reads like this: (30 °C) -3.24 ± 0.2; (37 °C) -2.05 ± 0.22. On to AUAGAGCAAUAUUACGAAGA, for which the “self-splicing fitness (ln)” value (30 °C) is -1.28 ± 0.38.

On to AUAGAGCAAUAUUACGAAGU, for which the “self-splicing fitness (ln)” value is -0.306 ± 0.1 (30 °C) and -0.662 ± 0.14 (37 °C). Taken in the same sequence, the figures for AUAGAGCAAUAUUACGAAUC were -3.82 ± 0.25 and -2.63 ± 0.3. AUAGAGCAAUAUUACGAAUG: the “self-splicing fitness (ln)” value by setting is: (30 °C) -3.68 ± 0.19; (37 °C) -1.96 ± 0.17. On the same counts, the results for AUAGAGCAAUAUUACGACAA are -1.04 ± 0.07 and -0.291 ± 0.092. In the case of AUAGAGCAAUAUUACGAGAA, where the note is “37 °C”, the “self-splicing fitness (ln)” value was -1.82 ± 0.32.

As to AUAGAGCAAUAUUACGAUGU, the “self-splicing fitness (ln)” value is -0.266 ± 0.067 (30 °C) and 0.423 ± 0.095 (37 °C).

In the case of AUAGAGCAAUAUUACGCGUA, the “self-splicing fitness (ln)” value (30 °C) was -0.662 ± 0.1 and the “self-splicing fitness (ln)” value (37 °C) was -0.524 ± 0.13. Taken in the same sequence, the figures for AUAGAGCAAUAUUACGCUAC were -2.79 ± 0.2 and -2.36 ± 0.2. Taken in the same sequence, the figures for AUAGAGCAAUAUUACGCUCG were -0.665 ± 0.41 and 0.704 ± 0.38. As to AUAGAGCAAUAUUACGGAAA, the “self-splicing fitness (ln)” value (30 °C) is -2.73 ± 0.22 and the “self-splicing fitness (ln)” value (37 °C) is -2.19 ± 0.38. With AUAGAGCAAUAUUACGGCGA, the “self-splicing fitness (ln)” value by setting is: (30 °C) -0.73 ± 0.059; (37 °C) 0.0474 ± 0.076.

AUAGAGCAAUAUUACGGGAU: the “self-splicing fitness (ln)” value was -1.54 ± 0.11 (30 °C) and -1.87 ± 0.2 (37 °C). AUAGAGCAAUAUUACGGUAC: the “self-splicing fitness (ln)” value by setting is: (30 °C) -3.74 ± 0.32; (37 °C) -1.55 ± 0.23. Consider AUAGAGCAAUAUUACGUACA, for which the “self-splicing fitness (ln)” value runs as follows: (30 °C) -1.62 ± 0.098; (37 °C) -0.944 ± 0.12. On the same counts, the results for AUAGAGCAAUAUUACGUGUC are -2.81 ± 0.33 and -2.17 ± 0.36.
